The values that follow come from publication PMC4222845.

The target in experiment [1] is CopNΔ84 (C. pneumoniae AR39). Description: SEC; Superdex 200 10/300 GL, 10 mM Tris-HCl pH 7.5, 150 mM NaCl, 0.5 mL/min, 4°C; equivalent molar concentrations, incubated 15 minutes; molecular weight from BioRad gel-filtration standards.
Experiment [2] has as its target Scc3 (C. pneumoniae AR39). Description: ITC. (In ITC the heat of successive injections is recorded.)
Experiment [3] deals with Scc3-CopNΔ84 complex (C. pneumoniae AR39). Description: ITC.

Regarding Scc3 (natural protein), in experiment [1], the stoichiometry N stood at 1.

As to “synthetic peptide (CopB residues 163–173)”, the Kd in experiment [2] stood at 79 µM; in experiment [3] it was 49 µM.

For orientation: stoichiometry N means a count of units in the complex or per binding partner. Usually Kd stands for the constant that tells how readily two partners part at equilibrium. Higher therefore signals weaker binding.
